Data as given in paper PMC9137774, “The ArsH Protein Product of the Paracoccus denitrificans ars Operon Has an Activity of Organoarsenic Reductase and Is Regulated by a Redox-Responsive Repressor” (Antioxidants, 2022).

Tests used:
[1] = target: Paracoccus denitrificans ArsH (Pden_3133 protein), recombinant N-His6-ArsH (Paracoccus denitrificans); experiment: crystal structure; X-ray, 2.6 Å; sitting-drop vapor diffusion at 25 °C; molecular replacement with S. flexneri ArsH; four monomers in the asymmetric unit; interfaces analysed with PISA
[2] = target: Paracoccus denitrificans ArsR1 (product of pden_3136), recombinant with N-terminal hexahistidine tag (Paracoccus denitrificans); experiment: SEC; Superose 12, 10 mM MOPS/0.1 M NaCl/15% glycerol pH 7.5, 0.5 mL/min; 500 μL of 40 μM ArsR1 loaded, untreated; calibrated with ribonuclease A, chymotrypsinogen A, ovalbumin and albumin
[3] = test system: NC(=O)C1=CN([C@@H]2O[C@H](COP(=O)(O)OP(=O)(O)OC[C@H]3O[C@@H](n4cnc5c(N)ncnc54)[C@H](OP(=O)(O)O)[C@@H]3O)[C@@H](O)[C@H]2O)C=CC1; experiment: purified protein; conditions: co-substrate FMN (varied), 0.1 M sodium phosphate pH 7.0, 30 °C, sequential ternary-complex mechanism
[4] = test system: Cc1cc2nc3c(=O)[nH]c(=O)nc-3n(C[C@H](O)[C@H](O)[C@H](O)COP(=O)(O)O)c2cc1C; experiment: purified protein; conditions: NADPH varied 5-150 μM, 0.1 M sodium phosphate pH 7.0, 30 °C, sequential ternary-complex mechanism
[5] = target: T1, ArsR1 (Paracoccus denitrificans, UniProt A1B6S3); experiment: size-exclusion chromatography: dimer to monomer; also EMSA and fluorescence anisotropy: release from operator DNA; format: binding; conditions: 0.1 mM arsenite, 10 mM MOPS/0.1 M NaCl/15% glycerol pH 7.5
T1 construct: gene Pden_3136

[6] = target: T2, ArsR1 (Paracoccus denitrificans, UniProt A1B6S3 1-119); experiment: fluorescence anisotropy; Anisotropy: 10 mM MOPS, 0.1 M NaCl, 15% glycerol, pH 7.5 (Methods; Figure 9 legend says pH 7.0), 30 °C, 25 nM DNA; EMSA: 10 mM Tris-HCl, 50 mM NaCl, 0.5 mM EDTA, pH 8.0, room temperature, 10 µM DNA and 10 µM ArsR; conditions: protein: recombinant; tags: N-terminal His6 (pET100/D-TOPO); chain copies: 2; label: 5'-FAM on strand 1; blunt
T2 sequence: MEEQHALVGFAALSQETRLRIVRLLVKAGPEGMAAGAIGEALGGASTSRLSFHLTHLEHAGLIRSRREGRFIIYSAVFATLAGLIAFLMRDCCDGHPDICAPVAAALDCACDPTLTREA

[7] = target: T3, ArsR2 (Paracoccus denitrificans, UniProt A1B7C2 1-120); experiment: as above; conditions: protein: recombinant; tags: N-terminal His6 (pET100/D-TOPO); chain copies: 2; label: 5'-FAM on strand 1; blunt
T3 sequence: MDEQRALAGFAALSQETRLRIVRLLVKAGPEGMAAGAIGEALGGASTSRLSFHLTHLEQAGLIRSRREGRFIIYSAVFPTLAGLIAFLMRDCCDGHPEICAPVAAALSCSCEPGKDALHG

Work on “Paracoccus denitrificans ArsH (Pden_3133 protein), recombinant N-His6-ArsH (from UniProt A0A9X7N4T4 1-238) (enzyme)” yielded a stoichiometry N [1] of 4.

“Paracoccus denitrificans ArsR1 (product of pden_3136), recombinant with N-terminal hexahistidine tag (natural protein)” was tested, and the stoichiometry N [2] was 2.

In the case of “ArsH (Pden_3133; N-His6-ArsH) (Paracoccus denitrificans PD1222)”, the Km [3] is reported as 12 ± 2 µM, the kcat [3] is reported as 12.6 ± 0.4 s⁻¹ and the Km [4] is reported as 9.3 ± 0.7 µM. It also gave a kcat [4] of 12.6 ± 0.4 s⁻¹.

For `O[As](O)O` [sodium arsenite], the “size-exclusion chromatography: dimer to monomer; also EMSA and fluorescence anis” value [5] was “arsenite or diamide-treated ArsR eluted at the monomer size”.

B1: PDNA1 (dsDNA)
DNA 1: CTCAACATATCTTGAGAGGTTGATTCG
DNA 2: CGAATCAACCTCTCAAGATATGTTGAG
Molecule B1 has a Kd [6] of 9 ± 1 nM and a Kd [7] of 130 ± 20 nM.

B2: PDNA2 (dsDNA)
DNA 1: ATCAACATATCTTGAGAGGTTGATTCG
DNA 2: CGAATCAACCTCTCAAGATATGTTGAT
B2 showed a Kd [6] of 26 ± 4 nM and a Kd [7] of 140 ± 10 nM.
